Test results published in patent publication US20220193251A1, “CD30 TARGETING ANTIBODY DRUG CONJUGATES AND USES THEREOF” (Ludwig-Maximilians-Universitaet Muenchen, priority 2020, published 2022).

Tests used:
[1] = Storage of ADCs in mouse-plasma for 7 days at 37° C.; assay type: in vitro ADME; details: for DARav after plasma incubation n = 2 / Payload lost: mouse-plasma, 7 days at 37° C.
cathepsin B = cathepsin B (Homo sapiens, UniProt P07858); assay: Digestion of vc payloads with protease cathepsin B, RP-HPLC; assay type: biochemical; details: cathepsin B 1:1000 for each vc moiety
Description: Prior to the conjugation with the antibody, payloads 2 and 3 have been analyzed for their susceptibility to cleavage by the protease cathepsin B (FIGS. 5A-5C).
FIGS. 5A-5C show in FIG. 5A an RP-HPLC analysis of the valine-citrulline (vc) containing payload 2 during digestion reaction with the protease cathepsin B (1:1000 for each vc moiety). Prior to analysis the reaction was stopped with E-64. The chromatogram after a reaction time of 150 min was recorded at 220 nm. […] During the reaction of payload 3 with cathepsin B an intermediate is formed (grey, triangle) which contains one MMAE moiety.

[2] = Repeated dose toxicity and toxicokinetics study in rats; assay type: in vivo, Sprague Dawley rats; details: for Glucose level: one ADC compared to the other
Description: Experiments were performed in accordance with animal welfare law and approved by local authorities. […] Clinical observations, body weight and food consumption were determined daily throughout the study. Pharmacokinetic samples were obtained prior to each dose, 15 minutes post each dose and at necropsy from each animal. All animals were necropsied, with organs weighed and retained in fixative. Clinical pathology (hematology, clinical chemistry and coagulation end-points) samples were also taken at necropsy.
Clinical observations, body weight and food consumption were determined daily throughout the study. Pharmacokinetic samples were obtained prior to each dose, 15 minutes post each dose and at necropsy from each animal. All animals were necropsied, with organs weighed and retained in fixative. Clinical pathology (hematology, clinical chemistry, and coagulation endpoints) samples were also taken at necropsy.
As reference, rats were dosed with a control (vehicle) (data not shown).

[3] = cynomolgus monkey, cited from earlier work
[4] = Repeated dose toxicity and toxicokinetic study in cynomolgus monkey; assay type: in vivo
Description: Clinical condition (incl. bodyweight, food consumption & clinical observations), clinical pathology and immunophenotyping (T, B and NK cells) was evaluated throughout the study, with frequent sampling for TK and anti-drug antibody determination. All animals were subject to full necropsy with detailed macroscopic observations.
Bodyweight is depicted in kilogram, lymphocytes in billion per liter, neutrophiles in billion per liter and white blood cells in billion per liter.

[5] = rat, 10 mg/kg weekly, compared to the Brentuximab Tub-tag ADC
[6] = cynomolgus monkey, 6, 12 and 15 mg/kg
[7] = cynomolgus monkey, 6, 12 and 15 mg/kg repeated dose

| Molecule | DAR before plasma incubation [1] | DARav after plasma incubation n = 2 [1] | Payload lost [1] [%] | susceptibility to cleavage by cathepsin B, release of free MMAE (cathepsin B) | Hematocrit ([2]; rat, 10 mg/kg weekly) | Hemoglobin levels ([2]; rat, 10 mg/kg weekly) | MMAE driven testes changes ([2]; rat, 10 mg/kg weekly) | Red blood cell count ([2]; rat, 10 mg/kg weekly) | Reticulocytes count ([2]; rat, 10 mg/kg weekly) | Glucose level ([2]; rat, 10 mg/kg weekly) | further results |
| --- | --- | --- | --- | --- | --- | --- | --- | --- | --- | --- | --- |
| Bren. HC-2: Brentuximab with Tub-tag on heavy chains (SEQ ID NO: 2/12), 3-formyl-L-tyrosine, oxime-linked Payload 2 (vc-PAB-MMAE), DAR 2 | 2 | 1.8 | 10 | – | – | – | – | – | – | – | – |
| HA-(VC-PAB-MMAE)2 [payload 3] | – | – | – | cleaved by cathepsin B | – | – | – | – | – | – | – |
| CC[C@H](C)[C@H]([C@H](CC(=O)N1CCC[C@@H]1[C@@H](OC)[C@H](C)C(=O)N[C@@H](C)[C@H](O)c1ccccc1)OC)N(C)C(=O)[C@H](NC(O)[C@@H](C(C)C)N(C)C(=O)OCc1ccc(NC(=O)[C@@H](CCCNC(N)=O)NC(=O)[C@H](NC(=O)CON)C(C)C)cc1)C(C)C (stereo partly shown) [payload 2, HA-VC-PAB-MMAE] | – | – | – | cleaved by cathepsin B | – | – | – | – | – | – | – |
| Brentuximab vedotin: approved CD30 ADC: chimeric IgG1 brentuximab, Cathepsin B cleavable Valin-Citrulline linker, Monomethyl-Auristatin E; maleimide-linked, DARav 4 | 4.02 | 1.53 | 62 | – | reduces hematocrit (mainly in males) | reduces hemoglobin levels (mainly in males) | testes changes were observed | marked impact | marked impact | greater level of glucose | APTT [2, 5]: lower APTT values; Eosinophils counts [2, 5]: lower eosinophils counts; Testis weight [2, 5]: lower testis weight; Thymus weight [2, 5]: lower thymus weight; tolerability at 6 mg/kg ([3]; 6 mg/kg): poorly tolerated; MTD [3]: 3 mg/kg |
| Bren. LC-2: Brentuximab with Tub-tag on light chains (SEQ ID NO: 11/1), 3-formyl-L-tyrosine, oxime-linked Payload 2 (vc-PAB-MMAE), DAR 2 | 2 | 1.8 | 10 | – | no marked effect | no marked effect | delayed in onset | no marked effect | no effect | lower glucose levels | overall safety profile in the rat ([2]; 10 mg/kg weekly): better safety profile compared to Brentuximab vedotin; serum concentrations after repeated doses ([2]; rat, 10 mg/kg i.v. at day 1, 8, 15 and 22): reasonable levels of serum concentrations; impact on red blood cell populations ([2]; rat, 10 mg/kg weekly): no impact on red blood cell populations; lymphocytes concentration and white blood cells concentration [4, 6]: No significant changes; reduction in neutrophiles in comparison to Brentuximab vedotin (3 mg/kg) [4, 6]: does not cause a higher amount of reduction in neutrophiles; clinical tolerability [4, 7]: clinically well tolerated; mortality, macroscopic and microscopic findings [4, 7]: no mortality and no macroscopic or sever microscopic findings; reductions in red blood cells, hemoglobin and neutrophils ([4]; cynomolgus monkey, at 12 & 15 mg/kg): relatively consistent to those observed with Adcetris at 3 mg/kg |
